Test: soluble on expression in E. coli; label from the status in PepcDB or PDB records

Sequence	soluble on expression in E. coli
GSSHHHHHHSSGLVPRGSHMSVQNVVLFDTQPLTLMLGGKLSYINVAYQTYGTLNDEKNNAVLICHALTGDAEPYFDDGRDGWWQNFMGAGLALDTDRYFFISSNVLGGCKGTTGPSSINPQTGKPYGSQFPNIVVQDIVKVQKALLEHLGISHLKAIIGGSFGGMQANQWAIDYPDFMDNIVNLCSSIYFSAEAIGFNHVMRQAVINDPNFNGGDYYEGTPPDQGLSIARMLGMLTYRTDLQLAKAFGRATKSDGSFWGDYFQVESYLSYQGKKFLERFDANSYLHLLRALDMYDPSLGYENVKEALSRIKARYTLVSVTTDQLFKPIDLYKSKQLLEQSGVDLHFYEFPSDYGHDAFLVDYDQFEKRIRDGLAGN	soluble
MAHHHHHHMKQRTNVALKRWYASERTKKANPLILISNSHNIHFNLSLENFLLNNYSDLLKHLNGNSIERYDDPVLFLWRNNRSIIIGKNQNIWSECNLENIKEDNVLVARRFTGGGAVYHDLQNLCFTFLNNSLSTDDNFSIILKTLKRHFAIEAKRQGRNDITVNDRKCSGSAFKKMKNGFLHHGTIMVNLEKDVLSRYLTPDKIKYTKHGVSSVNARTINLKEINPKITCQDLCYALIKEFQAFYKNGVPNEGGEASCSATLKVEDYTGGEKIANPPEQVSSNRNANLSEGEKSVANLIDHSSPILKHFNIHYVDTNESITKNPEFLKYLNLLKDWDWCYGKSPKFQNRLCKQFPFGKFEVFFNVSDGMIKDGNVFSDCLDINLVEQLKFIFNNDVRYSKDSVASFLRGLQVENEGSLREVTDWILQEL	not soluble
MTYRVKIHKQVVKALQSLPKAHYRRFLEFRDILEYEPVPREKFDVIKLEGTGDLDLYRARLGDYRVIYSVNWKDKVIKILKLKPRGRAYK	soluble
RVLNLEEGPDAFGDYAREKLFVRARFAARQVLDSYSHDIPEEFMASLRRRFEHDINADEDDDDAMTPEERRKIQERRFALFNKVRLEALYASQAELLRARSERDVDPMIVDEVLFEIDSQIIAAEKSTR	not soluble
VKNSNGVREKDGKPFRVELYYAGSDTVRRDIAIEFSSQMKKLGLDFPTIASTWDEIETKLGDVSVVLGGGSAPYDLTIMAYEYLHTRTPSTGKWANPGDYGSEKLNALLDQARSEVDVEKRNNLWRKIQAEYVNNPSALNLVNIDHVYVGKKNDWKKPELLLEPHIHGVTWGPWWRISEWTK	not soluble
MGSDKIHHHHHHMILEALQYAATRAVTPKEFRPHVRYSVNLWARANRCAKAWAEHENNSRQFVLQSAKKLKQRRTAVVLGSGLLRDVPHDALVAMFDTVVMVDLVHLASVQAKLRLNAKKNVRIANRDLSGFDDLLAGRPAEPLDFLRRVPYLDFVVSANLLSQIGTGAQHRLEREKIANVPGDLLPKLIQTHLDALAGLPCKVCLVTDTAFDVIGKDGSVQQHEDLLHGIEIASPAAAWDWPLAPFGEESRDYRIVHHVIAREMT	not soluble
MGSDKIHHHHHHMVMDHDIYFGYQRPRPTEYVQFANFDSRQLNLYLAGRIANNPPTKEVTESIGYMDGIIDFSDILGRRIFDNRTIEYQFKALNINYHDRKLLEQKCKRLLLIPMRQPIYDSHDLPFYWFGKASSVTANDDHVNNVLEITVQFNVSPYALRKGQFDDIWDNFSLETGYAQFTKYSVKGTKKISLYNDSDLKSRLKVICQNDMTINGKYKYTKNYQDNPNFRLEPGINDLTVNGNGDIEFQWESEVML	not soluble
MWRVCARRAQNVAPWAGLEARWTALQEVPGTPRVTSRSGPAPVRRNSVTTGYGGVRALCGWTPSSGATPRNRLLLQLLGSPGRRYYSLPPHQKVPLPSLSPTMQAGTIARWEKKEGDKINEGDLIAEVETDKATVGFESLEECYMAKILVAEGTRDVPIGAIICITVGKPEDIEAFKNYTLDSSAAPTPQAAPAPTPAATASPPTPSAQAPGSSYPPHMQVLLPALSPTMTMGTVQRWEKKVGEKLSEGDLLAEIETDKATIGFEVQEEGYLAKILVPEGTRDVPLGTPLCIIVEKEADISAFADYRPTEVTDLKPQAPPPTPPPVAAVPPTPQPLAPTPSAPCPATPAGPKGRVFVSPLAKKLAVEKGIDLTQVKGTGPDGRITKKDIDSFVPSKVAPAPAAVVPPTGPGMAPVPTGVFTDIPISNIRRVIAQRLMQSKQTIPHYYLSINVNMGEVLLVRKELNKILEGRSKISVNDFIIKASALACLKVPEANSSWMDTVIRQNHVVDVSVAVSTPAGLITPIVFNAHIKGVETIANDVVSLATKAREGKLQPHEFQGGTFTISNLGMFGIKNFSAIINPPQACILAIGASEDKLVPADNEKGFDVASMMSVTLSCDHRVVDGAVGAQWLAEFRKYLEKPITMLL	soluble
MNCESLLTALDVSTLLSTLSSPEKEHRRKRRRGEVANPSNTLDALVARKADDQPFEKRYLSEQEAIEGPDDEIEMKKMELDPDVSTRTCSTCGYQGKWVSEMIRHKRVHTSERPFKCRYCSRTSKWKADLIRHVAKTHGIRVVSKYSRSKVFDATNSSMDSSCSSDSDRCIISEKRTVFYRCQLCSFEDERVSVLNSHVSHLHNTSPCVCRCGAKFEDVQGALAHSNGPCSHVDMIYNVMPTYEKASPLSPCRSESSSDSGIQTDPEEEASIITSSLPTPQLGSSPLLLSPTLPVTPSFLPDIQSALLSLQPNPLMSLYLASLLQSSLLNSPTIPTSFPQIIPTTILTPSQQDEMVDVEM	not soluble
MAHHHHHHMVGIKYRKNFCDKMLRRTQQRAISQYKFGQPSLTRAFGPVPRERQVAQAGKFMSTKLPNGVRVVSHDLDGAHSVVGVYVEAGPKYDPLGCPGLSHVMRYAIQTSNMDSSLFQVDRTMRSTGNAYGHGEICKRYIHWKTEGRRDMWEKPFAMIATGVVAPRFHESDLERFRDTMDNQREELRWQNPREYCVDALETVAFFKEPLASPRMVPPESNDRCNQKVLLDHWAAYFQPGNITVAAVNIPHDALLAAYTSLPYPHSAEAPHHARSRPPTLSHASESAQFYPGRQYIVYEDRAKNMGTVPDMKEEVIAALGAPTFGRDEDVKKYATALVAREVYQASIESVMPAALTTSHGVQSFYRPYSSAGLIGITIRGAPKEIAGFLDAARGCFPIKVKDDEVAAGRARAAMAFTRNHLDMVRDYCDFIATLSVTPQQLMEAIGAVSAGEVDAALRTLSAVPPAVFVTGSTFTFPKVPSLKK	not soluble
MIGAILAGGYGKRLKPITDSIPKALVEIKDNYTIMDRQLFDFSIMGIEAVYILSGYLGNKIEERYGSRYRDMNIYYLREEKPLGTLYSLRNLIDEVKDDDIVLRNGDTVTDVNFLNFLKKAQDQKYYITMYVTRMKSPFGIVETFGDQIVQFREKPELNHYINAGLYYIKSDAFPYFFEKYIDRDLETTVFPRMAREGLIGSYTEEAMWIGIDSEKDLERIRADYRNREDYPWGYLKVLYDDDRSRLLEYAIKAGSDTEIDCGDGCILRIQSGLGTFGDSSDEKFRNGDVRSISGKVRVNAFENTRLELIISKKLEHHHHHH	soluble
MNTIVVAQLQRQFQDYIVSLYQQGFLDNQFSELRKLQDEGTPDFVAEVVSLFFDDCSKLINTMSISLERPDNVDFKQVDSGVHQLKGSSSSLCFVLSVGARRVKNVCISFKECCDVQNREGYSSNSHTNCDNDIWHRCLRCLQQVDYEYKMLKTKLQDLFNVSFKLCENLLVLLLEKQILQAGGTIPQVDIN	soluble
MDYFNIFAYGELMKDEILFELINRVPEKNLGKIYNFEKFFDEKIGYYGIKPKENSSISGIILFNINSTELEIFDDYEDEGTYYSKNKTICYDLNGKGYESYVYVRLELEHHHHHH	not soluble
MSLVSIDLPIEGRLARYDLTGRPVPFNSRDAKAFSRVAFAAAHVVADPLADNDPWLAPAIDWERTLAFRHRLWDLGLGVAESMDTAQRGMGLGWPEARELIRRSLAEARGRPDALIACGAGTDHLAPGPDVSIDDILAAYESQIEAIEAEGGRIILMASRALAAAAKGPEDYIRVYDRVLSQVKEPVIIHWLGEMFDPALEGYWGNADHMAAMKTCLDVLEAHAAKVDGIKISLLSKEKEIVMRRQLPKGVRMYTGDDFNYAELIAGDEEGHSDALLGIFDAIAPVASAALEALGSGRNGEFFELLEPTVPLSRHIFKAPTRFYKTGVVFLAYLNGLQDHFVMIGGQQSARSLVHLAELFRLADKAGALADPELATARMRRVLAMHGVEEGHHHHHH	soluble
ERRQGIAGVKGNQLQLMTESDDVMQALIRDIQLARHNIEMVFYIWQPGGMADQVAESLMAAARRGIHCRLMLDSAGSVAFFRSPWPELMRNAGIEVVEALKVNLMRVFLRRMDLRQHRKMIMIDNYIAYTGSMNMVDPRYFKQDAGVGQWIDLMARMEGPIATAMGIIYSCDWEIETGKRILPPPPDVNIMPFEQASGHTIHTIASGPGFPEDLIHQA	not soluble
MQSAKPLFDYPKYWAECFGPAPFLPMSREEMDLLGWDSCDIIIVTGDAYVDHPSFGMAIIGRLLESQGFRVGIIAQPNWQSKDDFMKLGEPNLFFGVAAGNMDSMINRYTADKKIRSDDAYTPGGMAGKRPDRASLVYSQRCKEAYKHVPIVLGGIEASLRRIAHYDYWQDKVRNSILIDACADILLYGNAERAIVEVAQRLSYGHKIEDITDVRGTAFIRRDTPQGWYEVDSTRIDRPGKVDKIINPYVNTQDTQACAIEQEKGNVEDPNEAKVVQILASPRMTRDKTVIRLPSVEKVRNDAVLYAHANRVLHLETNPGNARALVQKHGEVDVWFNPPPIPMTTDEMDYVFGMPYARVPHPAYGKEKIPAYDMIRFS	not soluble
MRTISFFNNKGGVGKTTLSTNVAHYFALQGKRVLYVDCDPQCNATQLMLTEEQTESIYLDGLNDEVAERNSLAKTVYAIFVPLREGESQIAAEITPMRSERFGVDVLPGHPALSQIEDLMSDSWQSALGRQTGPFRRIHWAGQLAHAMERDDRYDVIFFDVGPSLGPFNRTVLLGCDAFVTPTATDLFSFHAFGNLARWFDAWVTQYAEIHEGNMAEWKKYSADVEAKTRPLRLGGFDGEGLRYLGYTTLEYVKRRANGQEQLVGAFERFRGRFAAEAERISNSLSKHSNSTLLGHVPHMHSMPATAQDVHAPIMELSSSDRVRGAQINQRNAYAEKINSVAANVYKALFPNELEHHHHHH	soluble
MRFEYDLLIVAASPLALDIAYRCAPLGRIGLVIPPPDGQWQWQWQRWWLSQFPPRTLDAQHWQHFQAHLSHGQRRYAPAVLELVGVDVITGVGEFVWRPRCHFQVGGDRLYARGYLLLDAPAAMDFQDMDALSRIELACWHYWSGKAPNADAQGLPVVTTEDAWFNDRLHAALKALGLAIPGSGKRKAPDFSPLHLHPLQRDAQGWLRLNRYGRTSHPQIYACGGWQRGYHLPSLTYFEAFAIARQILQRRPIPLDYRSQPWWIALPIPMARVGWNGRQAQQSLREPIQLWEIQQWSPEGQSLGQVVINRQGRLLGATLIGRAAIASSRIFGRCLDENAFAAITYAGWELDCQRQRSPKARRLPKSGSGLDSPLPLEHHHHHH	soluble
MPEHTKVSAEDQALLNKFARSYQTQTQLKADVKEAKTLIDNINEASDEILLLDDEDSASIPCRIGSCFVHFNGDSLNEHLEGKKTTAEKVLSEKTSELDAISADMEQIKKVLYAKFGDQINLDAEE	soluble
GAMAPGGEMTFSIPTHKCGLVIGRGGENVKAINQQTGAFVEISRQLPPNGDPNFKLFIIRGSPQQIDHAKQLIEEKIEGPLCPVGPGPGGPGPAGPMGPFNPGPFNQ	soluble
MSTRSARIVVVSSRAAAGVYTDDCGPIIAGWLEQHGFSSVQPQVVADGNPVGEALHDAVNAGVDVIITSGGTGISPTDTTPEHTVAVLDYVIPGLADAIRRSGLPKVPTSVLSRGVCGVAGRTLIINLPGSPGGVRDGLGVLADVLDHALEQIAGGDHPR	soluble
GSGKSLLLKVILLGDGGVGKSSLMNRYVTNKFDSQAFHTIGVEFLNRDLEVDGRFVTLQIWDTAGQERFKSLRTPFYRGADCCLLTFSVDDRQSFENLGNWQKEFIYYADVKDPEHFPFVVLGNKVDKEDRQVTTEEAQTWCMENGDYPYLETSAKDDTNVTVAFEEAVRQVLAVEEQLE	soluble

Source: the DeepSol protein solubility set
